2 molecules from paper PMC3078060 (Molecular Biology of the Cell, 2011) can be followed below.

Assay in all cases: pull-down
The target of experiment [1] is T1, His6-Vps3 (S. cerevisiae, UniProt P23643 1-1011).
T1 sequence: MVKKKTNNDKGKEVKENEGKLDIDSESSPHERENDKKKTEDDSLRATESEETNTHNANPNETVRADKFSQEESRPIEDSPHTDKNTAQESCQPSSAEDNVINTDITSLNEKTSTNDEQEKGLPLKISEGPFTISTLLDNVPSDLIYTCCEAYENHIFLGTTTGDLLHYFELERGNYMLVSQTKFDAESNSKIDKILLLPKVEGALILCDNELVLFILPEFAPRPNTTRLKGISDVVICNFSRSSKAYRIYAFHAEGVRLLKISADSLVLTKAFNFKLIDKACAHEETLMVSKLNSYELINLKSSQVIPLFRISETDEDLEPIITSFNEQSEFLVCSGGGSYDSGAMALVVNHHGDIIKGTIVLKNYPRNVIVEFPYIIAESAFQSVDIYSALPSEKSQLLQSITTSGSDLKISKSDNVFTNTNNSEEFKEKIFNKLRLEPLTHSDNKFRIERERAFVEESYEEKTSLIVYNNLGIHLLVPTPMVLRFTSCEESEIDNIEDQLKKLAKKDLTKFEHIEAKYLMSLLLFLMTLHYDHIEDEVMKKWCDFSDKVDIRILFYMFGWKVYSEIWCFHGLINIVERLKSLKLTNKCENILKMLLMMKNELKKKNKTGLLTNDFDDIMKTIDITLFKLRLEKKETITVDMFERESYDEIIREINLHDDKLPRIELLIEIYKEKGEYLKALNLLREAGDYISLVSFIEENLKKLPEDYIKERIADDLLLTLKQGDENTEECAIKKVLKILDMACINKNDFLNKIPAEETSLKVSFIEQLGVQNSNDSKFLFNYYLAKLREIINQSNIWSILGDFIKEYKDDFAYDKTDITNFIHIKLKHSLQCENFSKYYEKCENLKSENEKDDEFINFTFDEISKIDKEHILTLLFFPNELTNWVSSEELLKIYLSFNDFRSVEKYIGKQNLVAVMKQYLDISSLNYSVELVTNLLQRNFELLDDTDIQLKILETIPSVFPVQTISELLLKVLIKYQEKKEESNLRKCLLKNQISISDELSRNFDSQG

Experiment [2] deals with T2, His6-Vps39–860Δ (S. cerevisiae, UniProt Q07468 1-860).
T2 sequence: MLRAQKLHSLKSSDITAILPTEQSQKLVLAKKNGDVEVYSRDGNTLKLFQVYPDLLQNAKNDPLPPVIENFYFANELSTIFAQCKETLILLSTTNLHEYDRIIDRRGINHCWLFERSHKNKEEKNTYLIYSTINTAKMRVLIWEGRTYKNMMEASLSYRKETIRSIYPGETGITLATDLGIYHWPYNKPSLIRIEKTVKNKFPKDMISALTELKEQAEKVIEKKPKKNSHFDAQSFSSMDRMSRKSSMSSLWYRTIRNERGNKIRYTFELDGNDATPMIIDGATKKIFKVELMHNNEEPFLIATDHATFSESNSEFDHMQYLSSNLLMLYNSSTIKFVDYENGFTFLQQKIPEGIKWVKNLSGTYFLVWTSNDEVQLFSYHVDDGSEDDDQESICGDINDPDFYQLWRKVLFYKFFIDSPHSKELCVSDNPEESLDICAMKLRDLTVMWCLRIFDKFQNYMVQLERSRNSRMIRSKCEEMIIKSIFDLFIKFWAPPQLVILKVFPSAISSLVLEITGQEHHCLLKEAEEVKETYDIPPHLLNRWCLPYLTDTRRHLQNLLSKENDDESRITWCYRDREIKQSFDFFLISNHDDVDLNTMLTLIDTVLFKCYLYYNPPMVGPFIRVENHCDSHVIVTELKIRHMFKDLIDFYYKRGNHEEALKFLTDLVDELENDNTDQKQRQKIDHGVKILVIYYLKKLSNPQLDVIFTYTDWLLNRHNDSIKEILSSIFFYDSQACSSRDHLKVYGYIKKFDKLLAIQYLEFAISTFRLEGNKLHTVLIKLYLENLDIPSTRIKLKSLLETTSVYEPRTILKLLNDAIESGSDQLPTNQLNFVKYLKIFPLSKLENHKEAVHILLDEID

The target in experiment [3] is T3, His6-Vps41 (S. cerevisiae, UniProt P38959 1-992).
T3 sequence: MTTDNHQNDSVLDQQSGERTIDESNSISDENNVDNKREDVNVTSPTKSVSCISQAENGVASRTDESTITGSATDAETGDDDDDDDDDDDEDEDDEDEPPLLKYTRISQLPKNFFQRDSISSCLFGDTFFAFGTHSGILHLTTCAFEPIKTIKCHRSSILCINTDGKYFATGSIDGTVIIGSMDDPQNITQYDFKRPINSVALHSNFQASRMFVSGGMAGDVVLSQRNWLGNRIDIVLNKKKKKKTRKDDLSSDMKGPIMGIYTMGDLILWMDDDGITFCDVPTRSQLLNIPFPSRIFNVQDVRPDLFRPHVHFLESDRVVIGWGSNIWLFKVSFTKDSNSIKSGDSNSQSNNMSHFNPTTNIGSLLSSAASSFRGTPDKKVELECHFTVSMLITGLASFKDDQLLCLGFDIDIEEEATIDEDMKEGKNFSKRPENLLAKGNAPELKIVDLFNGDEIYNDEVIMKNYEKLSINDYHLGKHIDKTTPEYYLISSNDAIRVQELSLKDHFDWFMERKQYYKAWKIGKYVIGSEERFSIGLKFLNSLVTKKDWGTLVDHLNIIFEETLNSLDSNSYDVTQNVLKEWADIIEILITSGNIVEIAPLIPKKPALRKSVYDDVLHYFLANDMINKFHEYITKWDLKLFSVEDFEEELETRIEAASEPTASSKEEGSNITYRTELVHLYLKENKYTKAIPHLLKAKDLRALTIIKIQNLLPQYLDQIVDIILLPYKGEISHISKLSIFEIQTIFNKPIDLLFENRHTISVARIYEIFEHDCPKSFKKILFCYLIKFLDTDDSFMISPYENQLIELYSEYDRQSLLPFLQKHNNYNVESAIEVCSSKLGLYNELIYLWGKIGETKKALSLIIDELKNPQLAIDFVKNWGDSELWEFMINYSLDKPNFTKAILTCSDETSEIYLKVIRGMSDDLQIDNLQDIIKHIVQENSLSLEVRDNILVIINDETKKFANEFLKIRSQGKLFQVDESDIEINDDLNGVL

B1: GST-Vps21 (natural protein)
chain: MNTSVTSIKLVLLGEAAVGKSSIVLRFVSNDFAENKEPTIGAAFLTQRVTINEHTVKFEIWDTAGQERFASLAPMYYRNAQAALVVYDVTKPQSFIKARHWVKELHEQASKDIIIALVGNKIDMLQEGGERKVAREEGEKLAEEKGLLFFETSAKTGENVNDVFLGIGEKIPLKTAEEQNSASNERESNNQRVDLNAANDGTSANSACSC
As to B1, in experiment [1], the binding result is “binds”.

B2: GST-Ypt7 (natural protein)
chain: MSSRKKNILKVIILGDSGVGKTSLMHRYVNDKYSQQYKATIGADFLTKEVTVDGDKVATMQVWDTAGQERFQSLGVAFYRGADCCVLVYDVTNASSFENIKSWRDEFLVHANVNSPETFPFVILGNKIDAEESKKIVSEKSAQELAKSLGDIPLFLTSAKNAINVDTAFEEIARSALQQNQADTEAFEDDYNDAINIRLDGENNSCSC
Regarding B2, the binding result in experiment [2] and in experiment [3] was “binds” in each case.
